According to patent publication US20160108091A1 (Novartis, published 2016):
Bridges are numbered along the chain shown (N, C = ends). [ ]: non-standard residue; d: D form. 2Nal = N[C@@H](Cc1ccc2ccccc2c1)C(=O)O; NMeF = CN[C@@H](Cc1ccccc1)C(=O)O; pGlu = O=C1CC[C@@H](C(=O)O)N1; d(hCys) = N[C@H](CCS)C(=O)O; dNle = CCCC[C@@H](N)C(=O)O; hCys = N[C@@H](CCS)C(=O)O; Nle = CCCC[C@H](N)C(=O)O; dAbu = CC[C@@H](N)C(=O)O

T1: human APJ receptor (hAPJ) (human, UniProt P35414 1-380)
T1 sequence (looked up): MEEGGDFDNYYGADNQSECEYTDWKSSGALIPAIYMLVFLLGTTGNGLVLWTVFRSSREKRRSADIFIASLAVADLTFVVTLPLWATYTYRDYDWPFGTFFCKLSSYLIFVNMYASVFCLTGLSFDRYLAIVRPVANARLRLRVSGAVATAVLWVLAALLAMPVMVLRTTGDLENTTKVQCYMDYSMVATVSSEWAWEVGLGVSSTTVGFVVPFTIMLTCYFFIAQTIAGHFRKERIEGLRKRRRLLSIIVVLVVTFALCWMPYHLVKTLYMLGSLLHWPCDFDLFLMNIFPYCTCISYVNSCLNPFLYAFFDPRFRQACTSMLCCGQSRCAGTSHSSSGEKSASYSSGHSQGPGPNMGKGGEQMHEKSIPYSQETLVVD

B1: pE-R-P-c*-L-S-(D-hC)*-K-G-P-(D-Nle)-a-y-OH (peptide)
peptide: ERPCLSCKGPLAY
modifications: pE at 1; D-Cys (c) at 4; D-hC at 7; disulfide 4-7; D-Nle at 11; D-Ala (a) at 12; D-Tyr (y) at 13; free C-terminal acid
B2: Apelin cyclic peptide conjugated to a fatty acid via a BCN-PEG linker: … (peptide)
peptide: ERPCLSCKGPL
modifications: pE at 1; disulfide C4-C7; Lys 8 N6 carries the BCN carbamate, joined by click reaction to azido-dPEG23-amide of docos-21-ene-1,11,11-tricarboxylic acid (fatty acid-PEG linker, compound A); D-Nle at 11 with C-terminal NH(Phenethyl) amide
B3: H-R-P-C*-L-S-C*-K-(D-Nle)-a-f-OH (peptide)
peptide: H-RPCLSCK[dNle][dA][dF]-OH
modifications: disulfide 3-6
SMILES: CCCC[C@@H](NC(=O)[C@H](CCCCN)NC(=O)[C@@H]1CSSC[C@H](NC(=O)[C@@H]2CCCN2C(=O)[C@@H](N)CCCNC(=N)N)C(=O)N[C@@H](CC(C)C)C(=O)N[C@@H](CO)C(=O)N1)C(=O)N[C@H](C)C(=O)N[C@H](Cc1ccccc1)C(=O)O
B4: Ac-hC*-R-P-R-L-S-hC*-K-G-P-Nle-P-F-OH (peptide)
peptide: Ac-[hCys]RPRLS[hCys]KGP[Nle]PF-OH
modifications: disulfide 1-7
SMILES: CCCC[C@H](NC(=O)[C@@H]1CCCN1C(=O)CNC(=O)[C@H](CCCCN)NC(=O)[C@@H]1CCSSCC[C@H](NC(C)=O)C(=O)N[C@@H](CCCNC(=N)N)C(=O)N2CCC[C@H]2C(=O)N[C@@H](CCCNC(=N)N)C(=O)N[C@@H](CC(C)C)C(=O)N[C@@H](CO)C(=O)N1)C(=O)N1CCC[C@H]1C(=O)N[C@@H](Cc1ccccc1)C(=O)O
B5: pE-R-P-hC*-L-S-C*-K-G-P-f-a-f-OH (peptide)
peptide: ERPCLSCKGPFAF
modifications: pE at 1; hC (L-homocysteine) at 4; disulfide hC4-C7; D-Phe (f) at 11; D-Ala (a) at 12; D-Phe (f) at 13; free C-terminal acid
B6: Ac-C*-R-P-R-L-S-hC*-K-G-P-Nle-P-F-OH (peptide)
peptide: Ac-CRPRLS[hCys]KGP[Nle]PF-OH
modifications: disulfide 1-7
SMILES: CCCC[C@H](NC(=O)[C@@H]1CCCN1C(=O)CNC(=O)[C@H](CCCCN)NC(=O)[C@@H]1CCSSC[C@H](NC(C)=O)C(=O)N[C@@H](CCCNC(=N)N)C(=O)N2CCC[C@H]2C(=O)N[C@@H](CCCNC(=N)N)C(=O)N[C@@H](CC(C)C)C(=O)N[C@@H](CO)C(=O)N1)C(=O)N1CCC[C@H]1C(=O)N[C@@H](Cc1ccccc1)C(=O)O
B7: pE-R-P-(D-hC)*-L-S-hC*-K-G-P-(D-Nle)-(D-Nva)-f-OH (peptide)
peptide: ERPCLSCKGPLVF
modifications: pE at 1; D-hC at 4; hC at 7; disulfide 4-7; D-Nle at 11; D-Nva (D-norvaline) at 12; D-Phe (f) at 13; free C-terminal acid
B8: pE-R-C*-R-L-S-(D-hC)*-K-G-P-f-a-f-OH (peptide)
peptide: [pGlu]RCRLS[d(hCys)]KGP[dF][dA][dF]-OH
modifications: disulfide 3-7
SMILES: CC(C)C[C@@H]1NC(=O)[C@H](CCCNC(=N)N)NC(=O)[C@@H](NC(=O)[C@H](CCCNC(=N)N)NC(=O)[C@@H]2CCC(=O)N2)CSSCC[C@H](C(=O)N[C@@H](CCCCN)C(=O)NCC(=O)N2CCC[C@H]2C(=O)N[C@H](Cc2ccccc2)C(=O)N[C@H](C)C(=O)N[C@H](Cc2ccccc2)C(=O)O)NC(=O)[C@H](CO)NC1=O
B9: pE-R-P-C*-L-S-C*-F-G-P-(D-Nle)-a-f-OH (peptide)
peptide: [pGlu]RPCLSCFGP[dNle][dA][dF]-OH
modifications: disulfide 4-7
SMILES: CCCC[C@@H](NC(=O)[C@@H]1CCCN1C(=O)CNC(=O)[C@H](Cc1ccccc1)NC(=O)[C@@H]1CSSC[C@H](NC(=O)[C@@H]2CCCN2C(=O)[C@H](CCCNC(=N)N)NC(=O)[C@@H]2CCC(=O)N2)C(=O)N[C@@H](CC(C)C)C(=O)N[C@@H](CO)C(=O)N1)C(=O)N[C@H](C)C(=O)N[C@H](Cc1ccccc1)C(=O)O
B10: Ac-C*-R-P-R-L-S-C*-K-G-P-Nle-P-NH2 (peptide)
peptide: Ac-CRPRLSCKGP[Nle]P-NH2
modifications: disulfide 1-7
SMILES: CCCC[C@H](NC(=O)[C@@H]1CCCN1C(=O)CNC(=O)[C@H](CCCCN)NC(=O)[C@@H]1CSSC[C@H](NC(C)=O)C(=O)N[C@@H](CCCNC(=N)N)C(=O)N2CCC[C@H]2C(=O)N[C@@H](CCCNC(=N)N)C(=O)N[C@@H](CC(C)C)C(=O)N[C@@H](CO)C(=O)N1)C(=O)N1CCC[C@H]1C(N)=O
B11: Ac-C*-R-P-R-L-S-C*-K-G-P-Nle-P-a-OH (peptide)
peptide: Ac-CRPRLSCKGP[Nle]P[dA]-OH
modifications: disulfide 1-7
SMILES: CCCC[C@H](NC(=O)[C@@H]1CCCN1C(=O)CNC(=O)[C@H](CCCCN)NC(=O)[C@@H]1CSSC[C@H](NC(C)=O)C(=O)N[C@@H](CCCNC(=N)N)C(=O)N2CCC[C@H]2C(=O)N[C@@H](CCCNC(=N)N)C(=O)N[C@@H](CC(C)C)C(=O)N[C@@H](CO)C(=O)N1)C(=O)N1CCC[C@H]1C(=O)N[C@H](C)C(=O)O
B12: pE-R-P-C*-L-S-C*-K-G-P-(D-Nle)-a-f-OH (peptide)
peptide: ERPCLSCKGPLAF
modifications: pE at 1; disulfide C4-C7; D-Nle at 11; D-Ala (a) at 12; D-Phe (f) at 13; free C-terminal acid
B13: pE-R-c*-R-L-S-C*-K-G-P-(D-Nle)-(D-abu)-f-OH (peptide)
peptide: [pGlu]R[dC]RLSCKGP[dNle][dAbu][dF]-OH
modifications: disulfide 3-7
SMILES: CCCC[C@@H](NC(=O)[C@@H]1CCCN1C(=O)CNC(=O)[C@H](CCCCN)NC(=O)[C@@H]1CSSC[C@@H](NC(=O)[C@H](CCCNC(=N)N)NC(=O)[C@@H]2CCC(=O)N2)C(=O)N[C@@H](CCCNC(=N)N)C(=O)N[C@@H](CC(C)C)C(=O)N[C@@H](CO)C(=O)N1)C(=O)N[C@H](CC)C(=O)N[C@H](Cc1ccccc1)C(=O)O

The binders below were run against T1, human APJ receptor (hAPJ) (assay: cell-based or functional assay).
With ERPCLSCKGPLPF (pE at 1; disulfide C4-C7; Nle at 11; free C-terminal acid) [pE-R-P-C*-L-S-C*-K-G-P-Nle-P-F-OH] the “hAPJ Ca^2+ Flux EC50” value was 3.1 nM. B1 was tested, and the “hAPJ Ca^2+ Flux EC50” value was 937 nM. ERPCLSCKGPLPF (pE at 1; disulfide C4-C7; Nle at 11; (N-Me)F at 13; free C-terminal acid) [pE-R-P-C*-L-S-C*-K-G-P-Nle-P-(N-Me)F-OH] was tested, and the “hAPJ Ca^2+ Flux EC50” value was 4.2 nM. In the case of ERPCLSCKGPLP (pE at 1; disulfide C4-C7; Nle at 11; C-terminal NH(Phenethyl) amide on P12) [pE-R-P-C*-L-S-C*-K-G-P-Nle-P-NH(Phenethyl)], the “hAPJ Ca^2+ Flux EC50” value is reported as 0.4 nM. With B2 the “hAPJ Ca^2+ Flux EC50” value was 2480 nM. B3 was tested, and the “hAPJ Ca^2+ Flux EC50” value was 66.7 nM. For B4, the “hAPJ Ca^2+ Flux EC50” value was 11.8 nM. In the case of Ac-CRPRLSCKGP[Nle]P-{NMe(Phenethyl)} (disulfide 1-7) [Ac-C*-R-P-R-L-S-C*-K-G-P-Nle-P-NMe(Phenethyl)], the “hAPJ Ca^2+ Flux EC50” value is reported as 23.4 nM. For ERPCLSCKGPL (pE at 1; disulfide C4-C7; D-Nle at 11 with C-terminal NH(Phenethyl) amide) [pE-R-P-C*-L-S-C*-K-G-P-(D-Nle)-NH(Phenethyl)], the “hAPJ Ca^2+ Flux EC50” value was 3 nM. With B5 the “hAPJ Ca^2+ Flux EC50” value was 4.2 nM. With ERPCLSCKGPLF (pE at 1; disulfide C4-C7; D-Nle at 11; D-Phe (f) at 12; free C-terminal acid) [pE-R-P-C*-L-S-C*-K-G-P-(D-Nle)-f-OH] the “hAPJ Ca^2+ Flux EC50” value was 0.6 nM. In the case of B6, the “hAPJ Ca^2+ Flux EC50” value is reported as 21.4 nM. In the case of B7, the “hAPJ Ca^2+ Flux EC50” value is reported as 175 nM. In the case of Ac-CRPRLSCKGP[Nle]P[NMeF]-OH (disulfide 1-7) [Ac-C*-R-P-R-L-S-C*-K-G-P-Nle-P-(N-Me)F-OH], the “hAPJ Ca^2+ Flux EC50” value is reported as 64.5 nM. For Ac-CRPRLSCKGP[Nle]P[2Nal]-OH (disulfide 1-7) [Ac-C*-R-P-R-L-S-C*-K-G-P-Nle-P-Nal-OH], the “hAPJ Ca^2+ Flux EC50” value was 1.6 nM. For B8, the “hAPJ Ca^2+ Flux EC50” value was 2290 nM. With B9 the “hAPJ Ca^2+ Flux EC50” value was 2 nM. With B10 the “hAPJ Ca^2+ Flux EC50” value was 74.6 nM. With B11 the “hAPJ Ca^2+ Flux EC50” value was 13.1 nM. With ERPCLSCKGPL (pE at 1; disulfide C4-C7; Nle at 11 with C-terminal NH(Phenethyl) amide) [pE-R-P-C*-L-S-C*-K-G-P-Nle-NH(Phenethyl)] the “hAPJ Ca^2+ Flux EC50” value was 0.5 nM. For B12, the “hAPJ Ca^2+ Flux EC50” value was 1.9 nM. With B13 the “hAPJ Ca^2+ Flux EC50” value was 86.5 nM.
